Measurements taken from a protein production outcome set (Wang et al. 2014).

Test: label from the status in PepcDB records

Row | Sequence | protein production
1 | MNSGTLLGKASISFSRPVYIQSCASVVGPKEGDGPLKNCFDMICDDPMFGEKKWEAAESAMQKEAAVLAIGKAGLTPDDIRFVFAGDLLAQTIASSFGIAEMGIPFFGLYGACSTMGESLSLGAIAVSAGYGHHILCATSSHFATAEKEFRFPLGYGCQRPLSATWTVTGSAACILSPEAPHPSEIVGSSLLRSTLGSVAITGITTGKVIDFGFRDSLNMGGCMAPAACDTIYRNFEDFGRSVNDYDAVLTGDLGVVGRQILLDLLKEKNIDLSSVHQDCGLLIYDNQKQDTHSGGSGCGCAASVLAAYILPRVVSGFWKRVLFVPTGAMLSKVSFNEGESVAGIAHGVVIEHISKETEV | failed
2 | MDTAKTKPFDEMFLQDEVIRPIYAEYAAWLQDVPHQQLESKRQEAELLFRRVGITFNVYGEDAGAERLIPFDVVPRILSASEWARLSDGAIQRVKALNMFLHDVYHDQEIIKAGIVPSSILANAQYRPEMFGVDVPGGVYAHIAGVDLVRTGENDFYVLEDNLRTPSGVSYMLENRKMMMRLFPELFRRYPVAPVEHYPQVLLNNLRAVAQAGVHEPTVVLLTPGAYNSAYFEHAFIAQQMGIELVEGQDLFVRNNAVYMRTTEGPKRVDVIYRRIDDDFIDPLSFRPDSMLGVPGLLSVYRNGGVTLANAVGTGVADDKDTYIYVPEMIRFYLGEEPILSNVPTYQLSKADDLKYVLDNLAELVVKEVQGSGGYGMLVGPAASKQELEDFRQRILANPANYIAQPTLALSTCPTLVETGIAPRHVDLRPFVLSGKTVSLVPGALCRVALREGSLVVNSSQGGGTKDTWILKD | not failed
3 | MPEKKPVTAENSVGIDLGIEKFAILSDGIAVENPRFIKRVEKRIKKLQKQISRKKKGSKNYEKQKIRIQKKYRKLRNLRDDFHDKVSTAIAKRYDTIFIEDLNVRGMQRNHHLARSITDVSFYSFKEKLKWKADRYGKNLIEIGRFDPSSKLCSRCGNIKKDLKLSDRVYSCDACGLTIDRDYNASLDIRKIGLVKVGLVPPEFTPVEIATSGLDGIYPYRQMSVGESGRSEASAEELEHHHHHH | failed
4 | AAIILHEIYGINAHIQRAGHEWMTRGFDIYIPALFPHHTPFRYEQQEEAYRHFSANVGFDPAVVTTLLHELRTQYETLIVVGYSVGATLAWLSAASGLCDGVICYYGSRIRQYLHLAPLCPTLVIIARYEPAFDPLAMRQTLEKRPRVQCKMYDARHGFCDADSATFDAALSHQVMDDVSAFIRDI | failed
5 | MRRASQMFDFIGFKEGAMAFLLAFALAGLFTIAFKYVYQWVTPYNEKALIREGNTAAAIALAGALIGYVLPLASALSHTVSLPEFAAWATLAGVIQIAAFTGVRLVALPDVKARIENGEVSVGVYLAGISIAVGLLNAACMTT | failed
6 | MVLDVFIEVSLVIFVAFLISLVMRMLKQPLIIGYILTGILVSPYFLNIVRFEESISTLGHYGVTILLFMVGISLNPGYFKEIGKISVITGLGQIVFTFSIGFLISIFLGYSYIESMYISIALTFSSTIIIMKLISDKGDIDKLYGKISIGFLIVQDIVAMAILILISAFNVQSGAGELLFLLLSKIVLILTAIYIFTKYALSNFISYASKNQEFLFLFSLMWCFTLASIFHLLGFSSEIGALIAGIVLAMFPERYEIASKVRPLRDFFLILFFVVLGVQMTFETSGSFLIPAIILSIFVLFGNPIIVMILMGAFGYTKKTGFLAGLTVAQISEFSLIIASLGLRNGHLSQGIVSMITLIGIITIAGSSYFITYSEKIYSLLSNYLSIFEKKTKMSEKDFKNKNTGEIILFGADRTGKNILNVIENSKERFLIIDYNPKIIKDLSKRGYNSIYGDASNLELLNELNFKESKMLISTISDIETDILLIKTILKSNKNAIIIVIAHKIEDAIKLYEEGASYVIMPHFLGSIHASLMIQKYGLNIEEFLKEKSNHMESLKKSQELFRHTK | failed
7 | MCPKNASYYGNRAATLMMLGRFREALGDAQQSVRLDDSFVRGHLREGKCHLSLGNAMAACRSFQRALELDHKNAQAQQEFKNANAVMEYEKIAETDFEKRDFRKVVFCMDRALEFAPACHRFKILKAECLAMLGRYPEAQSVASDILRMDSTNADALYVRGLCLYYEDCIEKAVQFFVQALRMAPDHEKACIACRNAKALKAKKEDGNKAFKEGNYKLAYELYTEALGIDPNNIKTNAKLYCNRGTVNSKLRKLDDAIEDCTNAVKLDDTYIKAYLRRAQCYMDTEQYEEAVRDYEKVYQTEKTKEHKQLLKNAQLELKKSKRKDYYKILGVDKNASEDEIKKAYRKRALMHHPDRHSGASAEVQKEEEKKFKEVGEAFTILSDPKKKTRYDSGQDLDEEGMNMGDFDPNNIFKAFFGGPGGFSFEASGPGNFFFQFG | failed
8 | MRPVLVLLHRYVGLATALFLFLAGLTGSLLAFHHEIDEWLNPGFYAVGEGGERLSPGSLVQRVESRYPRQLVWYMEYPEAGGHPALLATVPREAGAKVEHDVFYLDPVSGEEVGKRLWAACCFQPANLVPWVLEFHHNLTLPGNWGLYLMGGVAMFWFLDCFVGAWLTLPRGRPFWSKWTTAWKIKRGNAYRFNFDLHRAGGLWLWLLLAPVALSSVALNLPSQVFKPLVSLFSPIEPSVYEARGRLPREQLGETRLDYDRTFQLASVEAARLGIAEPIGELYYSFEYNFFGAGFGDHDDPMGKSWLFFHGSDGRLLGQEVAGQGSWGERFYRLQYPIHGGRIAGLPGRIAIAALGLAIAGLSLTGVYIWWRKRRARHWNGR | failed
9 | MSELSTEAPAQSAKPTIYFDGVSSRRRQVTLTLGDALEIVEEGATPVRWAYADIRRADSPAGILRLASTFAPPLARLEIRDTALAADVSVRCMRLDEHQTTRRGIAKIVGWSVAAAVSIVCVVLFGVPLAADRLAPLVPKPIERRIGDASEVQVKTIFGGRTCEDPAGKAAFTKLVNRLRDAAGLDDDSMTAGVLPTSVPNAFALPGGKVFLLQGLLDRAESPDELAGILAHELGHLKHHDNMRGLIYNGGTSFLIGLLFGDVTGSSAVIFASRSVVEASYSREAETGADTFAIDIMHALGRSPRPSAELMFRITGKEGGSGFTILSSHPLTEDRLARMTKEDRPVSGPPLLTDAEWRALKGICGSGKI | failed
10 | MKKFSAIFGLLSVIFVIMAISQVSGLSGAITPPKIDIMVNASNGLPQDINSIIYVKNPNSFPVKVEMVTTGDLNNSKKVEVKIMKNNFTLKPGETVGVNITFTVKEKDNYEGDILTKISPVDYGDDKKGVNLKASVVLPTKVAIMVVGNEIHTKELVITAVLIISILGLGAMLIRRHL | failed
11 | MIEIRKASTHDATAIQTLLTQLGYPQSLEFIEKKIRLFESDERQFIFVADIDHKLAGFLSLTMIPQIALEGDFARIAYVCVDQQFRGKRIGQTLVAYAEQIAKSWGCNRMELHSGDHRKQAHEFYLGQNYEDAPKYFRKFL | failed
12 | MMKEFTPAPDSASIVSVTDRVKPVALGMGVTSVHFLGDRAAFVGGEENVAFVDSQGEITTVAVHGGGILSTASDGKRLVMGGDDGKVVSLDAKGEVTLLATDPKRRWIDAVALHADGAFAWSAGKTATVKSGKTEEKSLEVPSTVGGLAFAPKGLRLAIAHYNGATLWFPNMAASAEFLPWAGSHHAVTFSPDNKFLVTAMHEPALHGWRLADNRHMRMTGYPGRVRSMSWSAGGKALATSGADTVILWPFGSKDGPMGKEPAMLAPLQARVSVVACHPKNDILAAGYSDGTVLMVRLEDGAEILVRRNGTPPVAALAWNAKGTLLAFADENGDGGLLELLEHHHHHH | not failed
13 | MPEITLNCQKLPCPQPVLRCKALLDTEAPARCTVTVDNAPASENVARFLTSRGYDTSVHADPEGLWNIIAVRKDSAVAPSCDCEVMDARGIAAIAGTAEMPQKVTVFITSETLGSGDDVLGGKLMANFLATLPELGDELWRIVCVNGGVRLATREHPAVTHLNKLEAMGVDILVCGTCLDHFGLLSEKAVGQTTNMLDVVTSLQLATKVIRPLEHHHHHH | not failed
14 | MKSKTIRRWSFIHTWTSLICTVFLLMLALTGLPLIFHHEIDHLLGDSPELREMPADTPHLDLQQLVKAAEAHRPGEVMQYFGWDEDEPNGVMTIMARTAGTEPNASHTFMLDARTGEAVAMPSANGGLMMVMLRLHVDMFAGLPGKLLLAFMGILFVLAIISGTVLYLPFMRRLKFATVRQDKSSRLRWLDLHNLIGVVTLTWALVVGVTGVISACADLIIAAWRNDSLSAMVAPYRDAPPLTSLAPASRLLDIAREAAPGMQPDFIAFPGTRFSSEHHYAVFLKGSSHLTSHLLTPVLIDASSLQVTAVAGRPWYMDAMGMSQPLHFGDYGGMPMKVLWAAMDMLTIIVLGSGLYLWLARRRAGKSMPQVRP | failed
